Laboratory results: patent US20250296996A1 (BROADWING BIO, published 2025)

Columns and labels:
[1] = target: T1, Pext-01 (huANGTPL7-FLAG multimer) (human, UniProt O43827 27-346); assay: BLI Octet HTX; IgG on AHC sensor; Pext-01 at 100 nM; 1:1 fit; apparent KD
T1 construct: also called PExt-1; human wild type ANGPTL7 multimer; not shown: FLAG tag
T1 sequence: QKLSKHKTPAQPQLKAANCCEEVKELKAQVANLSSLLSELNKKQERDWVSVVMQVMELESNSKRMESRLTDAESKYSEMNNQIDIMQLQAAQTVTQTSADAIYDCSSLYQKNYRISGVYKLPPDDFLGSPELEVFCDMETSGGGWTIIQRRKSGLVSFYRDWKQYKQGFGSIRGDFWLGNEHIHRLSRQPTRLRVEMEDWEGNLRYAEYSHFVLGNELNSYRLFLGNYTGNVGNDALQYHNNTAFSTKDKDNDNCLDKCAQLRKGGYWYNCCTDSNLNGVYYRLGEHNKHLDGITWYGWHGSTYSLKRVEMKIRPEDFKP
Description: Experiments were also conducted to determine the reactivity and dissociation constants (KD) of anti-ANGPTL7 antibodies with the human ANGPTL7 multimer protein. Binding experiments were performed on Octet HTX (ForteBio) in 1×PBS, pH 7.4, 0.1 mg/ml BSA, 0.05% Sodium Azide, and 0.02% Tween 20. Antibodies at a concentration of 50 nM were loaded on pre-hydrated AHC biosensors for 5 mi. The loaded sensors were dipped into Pext-01 (huANGTPL7-FLAG) at a concentration of 100 nM for 5 min of association, followed by 10 min of dissociation. […] Responses (nm) at the end of association were also determined (Table 7).

P66 (rabbit ANGPTL7-his) = target: T2, P66 (rabbit ANGPTL7-his) (rabbit, UniProt G1T4P1 27-344); assay: BLI Octet HTX; IgG on AHC sensor; P66 at 200 nM; 1:1 fit
T2 construct: mature; also called rabbit ANGPTL7 protein
T2 sequence: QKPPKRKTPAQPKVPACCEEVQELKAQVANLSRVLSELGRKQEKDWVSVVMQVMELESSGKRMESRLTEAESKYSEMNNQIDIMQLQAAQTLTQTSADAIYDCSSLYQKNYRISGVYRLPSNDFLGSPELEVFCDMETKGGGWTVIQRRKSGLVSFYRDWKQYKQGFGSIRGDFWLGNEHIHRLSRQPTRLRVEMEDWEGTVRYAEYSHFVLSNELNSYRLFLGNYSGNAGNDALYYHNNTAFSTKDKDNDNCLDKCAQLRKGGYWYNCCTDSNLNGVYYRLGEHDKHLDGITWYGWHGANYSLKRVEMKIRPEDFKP
Procedure, shortened: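 Biolayer interferometry in PBS pH 7.4 with 0.1 mg/ml BSA, 0.05% sodium azide, 0.02% Tween 20; antibodies at 50 nM loaded on AHC sensors for 5 min. Monovalent analyte at 200 nM: 5 min association, 10 min dissociation; end-of-association response (nm) recorded, kinetics by 1:1 fit.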

[2] = target: T3, P60 (huANGPTL7-Fibrinogen-his) (human, UniProt O43827 129-343); assay: BLI Octet HTX; IgG on AHC sensor; P60 at 200 nM; 1:1 fit
T3 construct: also called human ANGPTL7 fibrinogen domain; not shown: C-terminal short linker and His tag
T3 sequence: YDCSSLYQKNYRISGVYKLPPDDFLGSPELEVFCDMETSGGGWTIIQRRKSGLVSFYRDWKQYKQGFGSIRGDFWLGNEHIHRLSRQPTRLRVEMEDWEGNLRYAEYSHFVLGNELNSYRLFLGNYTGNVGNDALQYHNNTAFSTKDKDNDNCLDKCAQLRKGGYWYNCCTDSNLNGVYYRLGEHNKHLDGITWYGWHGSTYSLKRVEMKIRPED
Procedure, shortened: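 Anti-ANGPTL7 IgG at 50 nM loaded 5 min on AHC biosensors, then dipped in monovalent P60 at 200 nM: 5 min association, 10 min dissociation.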

[3] = target: T3, P60 (huANGPTL7-Fibrinogen-his); assay: BLI Octet HTX; IgG on AHC sensor; P60 at 200 nM
Description: ANGPTL7 Antibody Kinetics. Experiments were conducted to determine the reactivity and dissociation constants (KD) of anti-ANGPTL7 antibodies with the human fibrinogen domain of the ANGPTL7 protein. Binding experiments were performed on Octet HTX (ForteBio) in 1×PBS, pH 7.4, 0.1 mg/ml BSA, 0.05% Sodium Azide, and 0.02 Tween 20. Antibodies at a concentration of 50 nM were loaded on pre-hydrated AHC biosensors for 5 min. The loaded sensors were dipped into monovalent P60 (huANGPTL7-Fibrinogen-his) at a concentration of 200 nM for 5 min association, followed by 10 min dissociation. […] Responses (nm) at the end of association were also determined (Table 2).

[4] = target: T4, P63 (huANGTPL7-GGPGG_sub-his) (human, UniProt O43827 27-346); assay: BLI Octet HTX; IgG on AHC sensor; P63 at 100 nM
T4 construct: also called full length human ANGPTL7 monomeric variant L59 GGPGG; not shown: C-terminal short linker and His tag
T4 sequence: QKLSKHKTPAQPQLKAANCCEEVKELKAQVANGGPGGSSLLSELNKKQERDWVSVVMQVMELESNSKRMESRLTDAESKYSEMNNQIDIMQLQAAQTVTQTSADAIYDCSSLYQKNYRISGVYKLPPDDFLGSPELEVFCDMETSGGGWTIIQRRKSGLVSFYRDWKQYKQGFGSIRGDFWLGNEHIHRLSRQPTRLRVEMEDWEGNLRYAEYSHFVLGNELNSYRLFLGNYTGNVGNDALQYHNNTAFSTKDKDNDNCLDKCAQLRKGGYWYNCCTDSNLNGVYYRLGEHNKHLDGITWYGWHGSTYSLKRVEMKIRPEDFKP
Description: Experiments were also conducted to determine the reactivity and dissociation constants (KD) of anti-ANGPTL7 antibodies with the human ANGPTL7 GGPGG_sub-his protein. Binding experiments were performed on Octet HTX (ForteBo) in 1×PBS, pH 7.4, 0.1 mg/mi BSA, 0.05% Sodium Azide, and 0.02% Tween 20. Antibodies at a concentration of 50 nM were loaded on pre-hydrated AHC biosensors for 5 min. The loaded sensors were dipped into monovalent P63 (huANGTPL7-GGPGG_sub-his) at a concentration of 100 nM for 5 min of association, followed by 10 min of dissociation.

B1: ATX-P-449 (antibody, human IgG1, kappa, N297A, V domains shown)
VH: QVQLVESGGGVVQPGRSLRLSCAASGFAFSSYGMHWVRQAPGKGLEWVAVISYYGSNKYYADSVKGRFTISRDNSKNTLYLQMNSLRAEDTAVYHCARGITMDVWGKGTTVTVSS
VL: EIVLTQSPATLSLSPGERATLSCRASQSVSSYLAWYQQKPGQAPRLLIYDASNRATGIPARFSGSGSGTDFTLTISSLEPEDFAVYYCQQRSNWPLTFGGGTKVEIKR
notes: Full chains (VH + hIgG1-Agly-Fc)
- Response [1]: 0.65 nm
- Kd (P66 (rabbit ANGPTL7-his)): 626 pM
- Response (P66 (rabbit ANGPTL7-his)): 0.74 nm
- Response [2]: 0.08 nm
- binding result [3]: no binding (tested: 200 nM)
- binding result [4]: no binding (tested: 100 nM)

B2: ATX-P-428 (antibody, human IgG1, kappa, N297A, V domains shown)
VH: QVQLVQSGAEVKKPGASVKVSCKASGYTFSSYGISWVRQAPGQGLEWMGWISAYNGNTNYAQNLRGRVAMTTDTSTTTAYMELRSLRSDDTAVYYCARVSLVWFGELPRGFDYWGQGTLVTVSS
VL: not shown
notes: as for B1
- Response [1]: 0.05 nm
- Response (P66 (rabbit ANGPTL7-his)): 0.04 nm
- Response [2]: 0.02 nm
- binding result [3]: no binding (tested: 200 nM)
- binding result [4]: no binding (tested: 100 nM)

B3: ATX-P-443 (antibody, human IgG1, kappa, N297A, V domains shown)
VH: QVQLVQSGAEVKKPGASVKVSCKASGYTFTSYGISWVRQAPGQGLEWMGWIIAYNGNTNYAQKLQGRITMTTNTSTNTAYMELRSLRSDDTAVYYCGRDTGFSFDYWGQGTLVTVSS
VL: not shown
notes: as for B1
- Response [1]: 0.03 nm
- Response (P66 (rabbit ANGPTL7-his)): 0.03 nm
- Response [2]: 0.01 nm
- binding result [3]: no binding (tested: 200 nM)
- binding result [4]: no binding (tested: 100 nM)
